Experimental data taken from PMC12143592, “Bacterial RecD2 is a processive single-stranded DNA translocase with strand-switching capacity at DNA forks” (Nucleic Acids Research, 2025).

T1: RecD2 (His-tagged) (Bacillus subtilis, UniProt O34481 1-798)
T1 sequence: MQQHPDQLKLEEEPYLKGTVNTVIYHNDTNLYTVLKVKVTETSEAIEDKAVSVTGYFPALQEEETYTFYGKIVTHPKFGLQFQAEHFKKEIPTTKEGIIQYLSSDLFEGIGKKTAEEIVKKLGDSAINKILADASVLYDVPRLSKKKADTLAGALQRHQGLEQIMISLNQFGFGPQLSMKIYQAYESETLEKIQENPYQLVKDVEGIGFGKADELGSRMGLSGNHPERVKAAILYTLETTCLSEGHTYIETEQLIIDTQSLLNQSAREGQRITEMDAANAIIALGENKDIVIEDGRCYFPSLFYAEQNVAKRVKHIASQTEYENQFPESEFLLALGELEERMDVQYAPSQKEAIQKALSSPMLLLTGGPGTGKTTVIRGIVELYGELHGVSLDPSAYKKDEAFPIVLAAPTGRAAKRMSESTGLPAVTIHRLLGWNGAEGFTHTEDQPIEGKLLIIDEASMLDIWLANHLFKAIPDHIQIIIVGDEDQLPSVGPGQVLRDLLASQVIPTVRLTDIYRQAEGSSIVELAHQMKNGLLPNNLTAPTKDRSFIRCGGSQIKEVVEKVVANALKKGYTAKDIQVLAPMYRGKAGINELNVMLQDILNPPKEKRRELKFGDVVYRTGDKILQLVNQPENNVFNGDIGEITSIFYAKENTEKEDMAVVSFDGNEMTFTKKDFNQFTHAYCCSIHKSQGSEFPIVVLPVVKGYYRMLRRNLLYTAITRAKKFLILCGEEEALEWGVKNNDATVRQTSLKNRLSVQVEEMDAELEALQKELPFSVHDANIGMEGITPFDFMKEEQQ

B1: 80-nt random ssDNA (17-M-80) (ssDNA)
DNA: ACGGCCTAGAACGGCCTAGAACGGCCTAGATCGTGAACCTGCAGGTAAGGGGCTGCTCATCGTAGGTTAGCGTAAATTAG
B2: 60-nt random ssDNA (17-M-60) (ssDNA)
DNA: ACGGCCTAGATCGTGAACCTGCAGGTAAGGGGCTGCTCATCGTAGGTTAGCGTAAATTAG
B3: RecD2 (BsRecD2) (Bacillus subtilis subsp. subtilis str. 168) (protein)
chain: MQQHPDQLKLEEEPYLKGTVNTVIYHNDTNLYTVLKVKVTETSEAIEDKAVSVTGYFPALQEEETYTFYGKIVTHPKFGLQFQAEHFKKEIPTTKEGIIQYLSSDLFEGIGKKTAEEIVKKLGDSAINKILADASVLYDVPRLSKKKADTLAGALQRHQGLEQIMISLNQFGFGPQLSMKIYQAYESETLEKIQENPYQLVKDVEGIGFGKADELGSRMGLSGNHPERVKAAILYTLETTCLSEGHTYIETEQLIIDTQSLLNQSAREGQRITEMDAANAIIALGENKDIVIEDGRCYFPSLFYAEQNVAKRVKHIASQTEYENQFPESEFLLALGELEERMDVQYAPSQKEAIQKALSSPMLLLTGGPGTGKTTVIRGIVELYGELHGVSLDPSAYKKDEAFPIVLAAPTGRAAKRMSESTGLPAVTIHRLLGWNGAEGFTHTEDQPIEGKLLIIDEASMLDIWLANHLFKAIPDHIQIIIVGDEDQLPSVGPGQVLRDLLASQVIPTVRLTDIYRQAEGSSIVELAHQMKNGLLPNNLTAPTKDRSFIRCGGSQIKEVVEKVVANALKKGYTAKDIQVLAPMYRGKAGINELNVMLQDILNPPKEKRRELKFGDVVYRTGDKILQLVNQPENNVFNGDIGEITSIFYAKENTEKEDMAVVSFDGNEMTFTKKDFNQFTHAYCCSIHKSQGSEFPIVVLPVVKGYYRMLRRNLLYTAITRAKKFLILCGEEEALEWGVKNNDATVRQTSLKNRLSVQVEEMDAELEALQKELPFSVHDANIGMEGITPFDFMKEEQQ

Columns and labels:
RecD2 (His-tagged) [1] = biological target: T1, RecD2 (His-tagged); experiment: EMSA; conditions: 2 mM MgCl2, 1 mM ATPgS, EMSA: 0.25 nM 32P-DNA, buffer B (composition not in material), 2 mM MgCl2 (or 10 mM), 15 min 37 C, then 0.05% glutaraldehyde 15 min 37 C, 8% PAGE …
RecD2 (His-tagged) [2] = biological target: T1, RecD2 (His-tagged); experiment: EMSA; 10 mM MgCl2, 1 mM ATPgS; EMSA: 0.25 nM 32P-DNA, buffer B (composition not in material), 1 mM ATPgS, 2 mM MgCl2 (or 10 mM), 15 min 37 C, then 0.05% glutaraldehyde 15 min 37 C, 8% PAGE; single-molecule: buffer A (composition not in material); conditions: protein: recombinant; tags: 6xHis (not removed); label: 32P
RecD2 (His-tagged) [3] = biological target: T1, RecD2 (His-tagged); experiment: EMSA; 2 mM MgCl2, 1 mM ATPgS; EMSA: 0.25 nM 32P-DNA, buffer B (composition not in material), 1 mM ATPgS, 2 mM MgCl2 (or 10 mM), 15 min 37 C, then 0.05% glutaraldehyde 15 min 37 C, 8% PAGE; single-molecule: buffer A (composition not in material); conditions: protein: recombinant; tags: 6xHis (not removed); label: 32P
[4] = substrate: Nc1ncnc2c1ncn2[C@@H]1O[C@H](COP(=O)(O)OP(=O)(O)OP(=O)(O)O)[C@@H](O)[C@H]1O; experiment: coupled ATP/NADH spectrophotometric ATPase assay, Michaelis-Menten fit; type: biochemical, Bacillus subtilis; conditions: ssDNA cofactor dT80 (3 μM nucleotides), 5 nM RecD2, 2 mM MgCl2, pH 7.5, 37 °C, turnover printed as Vmax per RecD2

Molecule	apparent K (half saturation) (RecD2 (His-tagged) [2]) [nM]	apparent K (half saturation) (RecD2 (His-tagged) [3]) [nM]	further results
3'-tailed duplex (30 nt tail)			K half (RecD2 (His-tagged) [1]): 14 nM
5'-tailed duplex (30 nt tail)			K half (RecD2 (His-tagged) [1]): 16 nM
B1	39.1 ± 15.4	11.1 ± 5.4	
TTTTTTTTTTTTTTTTTTTTTTTTTTTTTT (ssDNA) [poly(dT)30]		~6	
CTAATTTACGCTAACCTACGATGAGCAGCC (ssDNA) [30-nt random ssDNA (22-M-30)]	246 ± 20.2	212 ± 17.7	
B2	44.2 ± 14.1	13.5 ± 4.2	
B3			Km [4]: 82 µM; kcat [4]: ~223 s⁻¹
